According to paper PMC9877840:

Assays:
[1] = target: R. shameli ACE2‐mFC (Rhinolophus shameli); assay: SPR
S309 = assay: SPR

Substance	Kd [1]	Kd (S309)
SARS‐CoV‐2 RBD (from UniProt P0DTC2 319-541) (domain or fragment)	6.64 µM	
RshSTT182/200 receptor binding domain (RBD) (domain or fragment)		0.00375 µM
